Where two headings read alike, the source gives them in different places.
T1: O10-bS
T1 chain: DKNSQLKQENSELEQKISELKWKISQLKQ

T2: O11-bS
T2 chain: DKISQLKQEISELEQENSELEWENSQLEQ

T3: O12-bS
T3 chain: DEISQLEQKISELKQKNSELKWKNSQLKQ

T4: O13-bS
T4 chain: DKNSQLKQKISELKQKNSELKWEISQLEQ

T5: O15-bS
T5 chain: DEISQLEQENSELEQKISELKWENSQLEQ

T6: O16-bS
T6 chain: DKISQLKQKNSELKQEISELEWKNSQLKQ

T7: O2-bS
T7 chain: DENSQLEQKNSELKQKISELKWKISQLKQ

T8: O3-bS
T8 chain: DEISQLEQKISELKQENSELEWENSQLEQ

T9: O4-bS
T9 chain: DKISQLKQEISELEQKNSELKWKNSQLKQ

T10: O5-bS
T10 chain: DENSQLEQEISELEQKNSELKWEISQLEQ

T11: O6-bS
T11 chain: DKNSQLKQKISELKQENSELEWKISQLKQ

T12: O7-bS
T12 chain: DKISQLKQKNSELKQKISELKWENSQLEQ

T13: O8-bS
T13 chain: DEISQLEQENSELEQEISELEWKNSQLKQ

T14: O9-bS
T14 chain: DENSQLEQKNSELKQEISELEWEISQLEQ

T15: O14-bS
T15 chain: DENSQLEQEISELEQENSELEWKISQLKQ

T16: O11
T16 chain: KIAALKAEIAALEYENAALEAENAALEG

T17: O12
T17 chain: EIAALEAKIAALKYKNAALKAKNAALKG

T18: O13
T18 chain: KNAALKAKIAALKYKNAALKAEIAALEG

T19: O14
T19 chain: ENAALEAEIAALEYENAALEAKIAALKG

T20: O15
T20 chain: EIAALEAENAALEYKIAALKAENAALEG

T21: O16
T21 chain: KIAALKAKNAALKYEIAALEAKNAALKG

T22: O2
T22 chain: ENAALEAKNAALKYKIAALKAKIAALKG

T23: O3
T23 chain: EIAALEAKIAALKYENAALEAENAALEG

T24: O4
T24 chain: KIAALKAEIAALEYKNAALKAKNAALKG

T25: O5
T25 chain: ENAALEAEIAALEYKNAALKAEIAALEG

T26: O6
T26 chain: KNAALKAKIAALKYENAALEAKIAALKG

T27: O7
T27 chain: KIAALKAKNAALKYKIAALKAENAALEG

T28: O8
T28 chain: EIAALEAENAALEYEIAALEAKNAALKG

T29: O9
T29 chain: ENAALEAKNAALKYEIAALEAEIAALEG


Columns and labels:
O10-bS = biological target: T1, O10-bS; experiment: two-hybrid library CCNG1; settings: mean of both orientations;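 further: natural log of median RNA to DNA barcode read ratio; higher means stronger binding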
O11-bS = biological target: T2, O11-bS; experiment: two-hybrid library CCNG1;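 further: natural log of median RNA to DNA barcode read ratio; higher means stronger binding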
O12-bS = biological target: T3, O12-bS; experiment: two-hybrid library CCNG1;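 further: natural log of median RNA to DNA barcode read ratio; higher means stronger binding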
O13-bS = biological target: T4, O13-bS; experiment: two-hybrid library CCNG1;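 further: natural log of median RNA to DNA barcode read ratio; higher means stronger binding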
O15-bS = biological target: T5, O15-bS; experiment: two-hybrid library CCNG1
O16-bS = biological target: T6, O16-bS; experiment: two-hybrid library CCNG1
O2-bS = biological target: T7, O2-bS; experiment: two-hybrid library CCNG1
O3-bS = biological target: T8, O3-bS; experiment: two-hybrid library CCNG1
O4-bS = biological target: T9, O4-bS; experiment: two-hybrid library CCNG1
O5-bS = biological target: T10, O5-bS; experiment: two-hybrid library CCNG1
O6-bS = biological target: T11, O6-bS; experiment: two-hybrid library CCNG1
O7-bS = biological target: T12, O7-bS; experiment: two-hybrid library CCNG1
O8-bS = biological target: T13, O8-bS; experiment: two-hybrid library CCNG1
O9-bS = biological target: T14, O9-bS; experiment: two-hybrid library CCNG1
O14-bS = biological target: T15, O14-bS; experiment: two-hybrid library CCNG1
O11 = biological target: T16, O11; experiment: two-hybrid library CC0; settings: mean of both orientations
O12 = biological target: T17, O12; experiment: two-hybrid library CC0; settings: mean of both orientations
O13 = biological target: T18, O13; experiment: two-hybrid library CC0; settings: mean of both orientations
O14 = biological target: T19, O14; experiment: two-hybrid library CC0; settings: mean of both orientations
O15 = biological target: T20, O15; experiment: two-hybrid library CC0; settings: mean of both orientations
O16 = biological target: T21, O16; experiment: two-hybrid library CC0; settings: mean of both orientations
O2 = biological target: T22, O2; experiment: two-hybrid library CC0; settings: mean of both orientations
O3 = biological target: T23, O3; experiment: two-hybrid library CC0; settings: mean of both orientations
O4 = biological target: T24, O4; experiment: two-hybrid library CC0; settings: mean of both orientations
O5 = biological target: T25, O5; experiment: two-hybrid library CC0; settings: mean of both orientations
O6 = biological target: T26, O6; experiment: two-hybrid library CC0; settings: mean of both orientations
O7 = biological target: T27, O7; experiment: two-hybrid library CC0; settings: mean of both orientations
O8 = biological target: T28, O8; experiment: two-hybrid library CC0; settings: mean of both orientations
O9 = biological target: T29, O9; experiment: two-hybrid library CC0; settings: mean of both orientations

interaction score (O11-bS) | interaction score (O12-bS) | interaction score (O13-bS) | interaction score (O15-bS) | interaction score (O16-bS) | interaction score (O2-bS) | interaction score (O3-bS) | interaction score (O4-bS) | interaction score (O5-bS) | interaction score (O6-bS) | interaction score (O7-bS) | interaction score (O8-bS) | Binder | further results
-2 | -2.63 | -0.797 | 0.0876 | -0.405 | -1.55 | -0.954 | -0.565 | -1.67 | -0.631 | -0.783 | -1.24 | DKNSQLKQENSELEQKISELKWKISQLKQ [O10-bS] | interaction score (O10-bS): -1.52; interaction score (O9-bS; mean of both orientations): 0.492
-1.25 | 1.88 | -0.61 | -0.753 | -0.701 | -0.471 | -1.25 | 0.272 | -2.35 | -0.902 | -1.17 | -3.31 | DKISQLKQEISELEQENSELEWENSQLEQ [O11-bS] | interaction score (O14-bS): -2.92; interaction score (O9-bS): -2.56
 |  |  |  |  |  |  |  |  |  |  |  | KIAALKAEIAALEYENAALEAENAALEG [O11] | interaction score (O11): -2.72; interaction score (O12): 0.932; interaction score (O13): -2.75; interaction score (O14): -2.7; interaction score (O15): -2.79; interaction score (O16): -2.66; interaction score (O2): -2.53; interaction score (O3): -2.55; interaction score (O4): 0.197; interaction score (O5): -2.71; interaction score (O6): -2.64; interaction score (O7): -2.69; interaction score (O8): -2.61; interaction score (O9): -2.79
